Values of other authors, collected in publication doi:10.1101/2025.04.18.649563.

Target: F-actin (Oryctolagus cuniculus) (UniProt P68135)
Settings: cited from earlier work

## LifeAct (from UniProt Q08641)
  Kd: 2200 nM
